Results as given in the DeepSol protein solubility set.

Test: soluble on expression in E. coli; label from the status in PepcDB or PDB records

Row | Sequence | soluble on expression in E. coli
1 | MFSKSSNRFGTTSIFGDQSIKDEYRNRQRRLSLIGGPISGTSPNRRESLVRELRTVSLHQYTEDPTLAWEMLKEKRPVKPVRQMRLDTPVKPDHVRFVCIGCTHGEQFDISKLPPGDVLLVAGDFTSCGLPNEVHNFNKLLGKLKYSYKVVIGGNHECTFDDTFLKLKQESEPKEMALKQALLSAIHSDSKGGISAKDLLSNAIYLEDNVIELFGITIYGTPWQPKVDNWAFNLSRGQQLLDKWNLIPAALTCF | not soluble
2 | MVDVVMAPCSPVECRTAVVIDVLRATSTIVTALSNGASGVIPVKTIEEALEKKKEGVLICGERNAQKPKGFNLGNSPLEYRKEKISGKTIVLTTTNGTQVIEKIRSEEIIAASFLNLSAVVEYLKSKEDILLVCAGTNGRFSLEDFLLAGAIVKRLKRNDLGDGAHAAERYFESVENTREEIKKHSSHAKRLISLGFENDIEFCTTEDLFKTVPALVNGVFILKEFP | soluble
3 | GVNSVAARVTELTGREVAAVAERGHSHRWHLYRVELADGTPLFVKALPDDAPALDGLFRAEALGLDWLGRSFGSPVPQVAGWDDRTLAMEWVDERPPTPEAAERFGHQLAAMHLAGAESFGATWDGYIGPLPMDNTPRSTWPEFYAEQRILPYLRRAADRGALTPGDVRLVEKVLDALDHLAGDPEPPARIHGDLWNGNVLWQDDGAVVIDPAAHGGHREADLAMLALFGLPYLDRVRDAYNEVAPLAEGWRARIPLHQLHPLLVHVCLFGAAYRTTLVDTARAALRA | soluble
4 | MGSDKIHHHHHHMPEKKIDGRRKAAVLLVALGPEKAAQVMKHLDEETVEQLVVEIANIGRVTPEEKKQVLEEFLSLAKAKEMISEGGIEYAKKVLEKAFGPERARKIIERLTSSLQVKPFSFVRDTDPVQLVNFLQSEHPQTIAVVLSYLDPPVAAQILGALPEELQTEVLKRIALLERTSPEVVKEIERNLEKKISGFVSRTFSKVGGIDTAAEIMNNLDRTTEKKIMDKLVQENPELADEIRRRMFVFEDILKLDDRSIQLVLREVDTRDLALALKGASDELKEKIFKNMSKRAAALLKDELEYMGPVRLKDVEEAQQKIINIIRRLEEAGEIVIARGGGEELIM | not soluble
5 | VGPGMPFANRVVNRFGQVGLVPCSIGGTKLSQWQKGEFLYEETVKRAKAAMASGGGGSYRAVLWYQGESDTVDMVDASVYKKRLVKFFSDLRNDLQHPNLPIIQVRCLNT | soluble
6 | MSLIARDAHEGQFRSSGEPYITHPVAVASIIAQLHLDHEAVMAALLHDVIEDTPYTEEQLKEEFGASVAEIVDGVSKLDKLKFRTRQEAQVENFRKMILAMTRDIRVVLIKLADRTHNMRTLGSLRPDKRRRIAKETLEIYCPLAHRLGIEHIKNELEDLSFQAMHPHRYEVLKKLVDVARSNRQDLIERISQEIKVRLENSGIFARVWGREKHLYKIYQKMRIKDQEFHSIMDIYAFRVIVKNVDDCYRVLGQMHNLYKPRPGRVKDYIAVPKANGYQSLQTSMIGPKGVPVEVHIHTEDMEQVAEMGITAHWVYKENGKNDSTTAQIRVQRWLQSLVEIQQSVGNSFEFIENVKSEFFPKEIYVFTPKGRIVELPMGATAVDFAYAVHSDVGNTCVGVTVEHKPYPLSKALESGQTVNIITDPNAHPEVAWLNFVVTARAKTRIRHYLKQRCEEDAVKLGEVELNVALQPHNLGDFSIQQIRTVLDALALSSLDELLREIGLGNQSASMIAHQFVGVPLESANTKNLEFESKILTIAPMQVGKTQFAQCCHPILGDPIVGCCTEKNTVVVHHQHCASLKNACRQSLAKWDNVQSAVNFEAELQIEILNEQNALLSLMTAISASESSLQNIWTEELENNLLLVILQVCVKDIKHLANIVHRIKGITGVVNVKRNINELEGHHHHHH | not soluble
7 | MSLNLKDLIERERNCQKKKAFNCSFLDYLDIVKENPEVCKFAHKRIYDLIIKQGFHIVDKNESIKKYNFFGEDFFGIDKTLMKIVNYFYAASMEGEESKQVLYLVGPVGSGKSSIVEAIKIALEDSEPIYALENCPMREEPLHLIPNNLRRKFEKELDLKIEGDLCPVCTYRLREEFNGEIEKFPVQKIGFSIKERRGVGVVPPVDPNNQDTSVLVGSVDISKMDIYSEHDPRIFSLNGAFNVGNRGIVEFIEIFKNDIEYLHSIITATQEKLIPSPGKGSMVYYDGVIIAHSNEGEWNKFKSDPTNEAILDRIVKIEVPYCLELDEEKKIYKKILKNSNFQVHIAPHTIDVAAMFAILTRLNSSEKVDLMTKLKIYNGEEIVEKASIKKIEREELEEECRQKEGMTGVSTRFIIKAINNAICESNCSCINPIDVINSLITAVKEKDLCEEVEDKYISFLEDVVRKEYNKILYKEITKFFIESFNSQGEALFNNYLDHAEAYVNKVYLKDNITGENLDPDEEFMREIEEEIGVTENSSKGFRKDVVAYILYLIRKGEEINCNCYKPLKEAIERKLISSSREISRIINPSKIRNKAQDEKYKFIVEKLKNNGYCDTCAFYTLRYAANNFWRDEGHHHHHH | soluble
8 | MGSDKIHHHHHHMSSTHTGIEWTDKTWNPTTGCDKVSPGCRYCYAEALTERFPQSFPTGFKLNLHPERLEQPKRWRTPSRIFVNSMSDLFHEDVPFSFLQEIFSIMRETPWHIYQILTKREENLVDLAPKLEWTENIWMGVSVESQRYTYRIDALRKVPAAVRFLSCEPLLESLNLDLQNIDWVIVGGESGYNHRPVKPEWIREILQQTREAEVAFFFKQWGGKHSKAGGRMLDDHTWEEMPKAWRKHIIKWQKKFHGQPKLHELEQKYLMSTK | not soluble
9 | MFSIPPLPWGYDGLAAKGLSKQQVTLHYDKHHQGYVTKLNAAAQTNSALATKSIEEIIRTEKGPIFNLAAQIFNHTFYWESMCPNGGGEPTGKVADEINASFGSFAKFKEEFTNVAVGHFGSGWAWLVKDTNSGKLKVYQTHDAGCPLTEPNLKPLLTCDVWEHAYYVDYKNDRAAYVQTFWNVVNWKNVERQL | soluble
10 | MSLRILVNGLLPLDSGKTTFSLSIIRLFNQVGIRLFPFKPIAGHNAWYSFNTLIRSEELGILVGNDALKYYDETKYDIRRINPFAVLFVPIDLEKISYNVSLYNMIMEYGFPYLIRLSDCINGTDQYFVNSSADIYVPKSMLKFTRNLALKFNAKLYDKMREIIDASPQLVDNCTIDVFRNYENVIIESYNDSASPTYNSTNVDYVFTVSPTKAFLIKGQEFKKALSLFSIPPWNVRVSTLMKYLKIGKSFEIDVGERVAKDEILDILLKSEGHHHHHH | not soluble
11 | MAHHHHHHMTDTTKGALKRSNTLFLSDAEQFVFDFGGSAGGRAVSPGSSHGSGGQPGEGDGEKGIEETDLANGRTGVVTPFSERERTAPVAPLDAEEVQRYFDKALKGGRRILLENVPLDEAIEKFQLGLRRYEEWLCNQANSRNRGDSSKSRGDPLNEGYRGKPGDVARDAKDRKRPRL | not soluble
12 | MGSDKIHHHHHHMRKFNLTALSVMLALGLTACQPPEAEKAAPAASGEAQTANEGGSVSIAVNDNACEPMELTVPSGQVVFNIKNNSGRKLEWEILKGVMVVDERENIAPGLSDKMTVTLLPGEYEMTCGLLTNPRGKLVVTDSGFKDTANEADLEKLSQPLADYKAYVQGEVKELVAKTKTFTEAVKAGDIEKAKSLFADTRVHYERIEPIAELFSELDPVIDAREDDFKDGAKDAGFTGFHRIEYALWVEKDVSGVKEIAAKLMTDVEALQKEIDALAFPPGKVVGGASELIEEVAGSKISGEEDRYSHTDLSDFQANVDGSKKIVDLFRPLIEAKNKALLEKTDTNFKQVNEILAKYRTKDGFETYDKLGEADRKALQASINALAEDLAQLRGILGLK | not soluble
13 | QFMKPFISEKSSKSLEIPLGFNEYFPAPFPITVDLLDYSGRSWTVRMKKRGEKVFLTVGWENFVKDNNLEDGKYLQFIYDRDRTFYVIIYGHNMCS | not soluble
14 | MAHHHHHHMASLTVPAHVPSAAEDCEQLRSAFKGWGTNEKLIISILAHRTAAQRKLIRQTYAETFGEDLLKELDRELTHDFEKLVLVWTLDPSERDAHLAKEATKRWTKSNFVLVELACTRSPKELVLAREAYHARYKKSLEEDVAYHTTGDHRKLLVPLVSSYRYGGEEVDLRLAKAESKILHEKISDKAYSDDEVIRILATRSKAQLNATLNHYKDEHGEDILKQLEDGDEFVALLRATIKGLVYPEHYFVEVLRDAINRRGTEEDHLTRVIATRAEVDLKIIADEYQKRDSIPLGRAIAKDTRGDYESMLLALLGQEED | soluble
15 | MGSDKIHHHHHHMVGIGFRKDFAAKFLNTTDLQPDFIEVAPENWIGIGGLWKKRLQQALEKYPLYTHGLSLSIGSPDALDFDLLKGVKKFLAETGAKVYSEHLSYSKCDNAHLYDLLPIPFTHDAVKHIAKRIQTIQDFLERRLAIEIVSYYSPVAAEMSELEFVNAILQESDCDLLLDVNNIYVNGFNHNYDPYAFINQLPLERVAYIHIAGHDQVSETLIIDTHGEAIVDPVYYLYQYTMNQLQRDVPTLLERDFNIPQLSELQGEIDRLKKIKADCLTKELYGIQR | not soluble
16 | MSVDYPRDLIGYGSNPPHPHWPGKARIALSFVLNYEEGGERNILHGDKESEAFLSEMVSAQPLQGERNMSMESLYEYGSRAGVWRILKLFKAFDIPLTIFAVAMAAQRHPDVIRAMVAAGHEICSHGYRWIDYQYMDEAQEREHMLEAIRILTELTGERPLGWYTGRTGPNTRRLVMEEGGFLYDCDTYDDDLPYWEPNNPTGKPHLVIPYTLDTNDMRFTQVQGFNKGDDFFEYLKDAFDVLYAEGAEAPKMLSIGLHCRLIGRPARLAALQRFIEYAKSHEQVWFTRRVDIARHWHATHPYTGAAK | soluble
17 | SGWRSSVSRSLRPETSCDRPSSHLRNMDVNMAAELSPTNSSSSGELSVSPEPPRETQAFLGKVTVIDYFTFQHKHLKVTNIDDMTETLYVKLPENMTRCDHLPITCEYLLGRGSYGAVYAHADNATVKLYDSVTELYHELMVCDMIQIGKATAEDGQDKALVDYLSACTSCHALFMPQFRCSLQDYGHWHDGSIEPLVRGFQGLKDAVYFLNRHCGLFHSDISPSNILVDFTDTMWGMGRLVLTDYGTASLHDRNKMLDVRLKSSKGRQLYRLYCQREPFSIAKDTYKPLCLLSKCYILRGAGHIPDPSACGPVGAQTALRLDLQSLGYSLLYGIMHLADSTHKIPYPNPDMGFDRSDPLYFLQFAAPKVVLLEVLSQMWNLNLDMGLTSCGESPCVDVTAEHMSQFLQWCRSLKKRFKESYFFNCRPRFEHPHLPGLVAELLADDFFGPDGRRG | soluble
18 | MFDRLLSQFGRKRVASESVATQQQLTDRTNVYTVKPQDPLLDKKQKMTPVQKVCLKCLAGESGHITHVLSSLSN | not soluble
19 | MKNAFFVTASIACGKSTFIEIANSLGFKSISADKIAHKILDENALELEKIFSPFSLKNLLKKEKKIDRKILGEIVFNNKEAKKILENFTHPKIRAKILEQMQILDKENKAFFVEIPLFFESGAYENLGKVIVIYTPKELSLKRIMQRDKLSLEAAKARLDSQIDIEEKLKKADFIIKNTNSYADFRQECVKVIQEISKGNM | not soluble
20 | MASWSHPQFEKGAETAVPNSSSVPGDPSSMTRKNVLLIVVDQWRADFIPHLMRAEGREPFLKTPNLDRLCREGLTFRNHVTTCVPGGPARASLLTGLYLMNHRAVQNTVPLDQRHLNLGKALRAIGYDPALIGYTTTTPDPRTTSARDPRFTVLGDIMDGFRSVGAFEPNMEGYFGWVAQNGFELPENREDIWLPEGEHSVPGATDKPSRIPKEFSDSTFFTERALTYLKGRDGKPFFLHLGYYRPHPPFVASAPYHAMYKAEDMPAPIRAENPDAEAAQHPLMKHYIDHIRRGSFFHGAEGSGATLDEGEIRQMRATYCGLITEIDDCLGRVFAYLDETGQWDDTLIIFTSDHGEQLGDHHLLGKIGYNAESFRIPLVIKDAGQNRHAGQIEEGFSESIDVMPTILEWLGGETPRACDGRSLLPFLAEGKPSDWRTELHYEFDFRDVFYDQPQNSVQLSQDDCSLCVIEDENYKYVHFAALPPLFFDLKADPHEFSNLAGDPAYAALVRDYAQKALSWRLSHADRTLTHYRSSPQGLTTRNH | soluble
